According to US20120178682A1, “GB1 Peptidic Compounds and Methods for Making and Using the Same” (priority 2010, published 2012):
Changes are numbered by the printed parent chain. Numbers in names are those of the source.

B1: E01 (recombinant, His-tagged) (designed binder)
chain: MKIEEHHHHHHHHHHGGSTYKLILNGKTLKGETTTEAVDVYDAFDVFFVYAASNFSDFDDWTYDDATKTFTVTEGGSDK
B2: E01-D39F/F40I (designed binder)
chain: B1 chain with D57F, F58I
B3: E01-D39F/S35R (designed binder)
chain: B1 chain with S53R, D57F
B4: E01-D39F/S35E (designed binder)
chain: B1 chain with S53E, D57F
B5: E01-D39F/S38G (designed binder)
chain: B1 chain with S56G, D57F
B6: E01-D39F (designed binder)
chain: B1 chain with D57F
B7: E01-D39F/D27E (designed binder)
chain: B1 chain with D45E, D57F
B8: E01-D39F/V22L (designed binder)
chain: B1 chain with V40L, D57F
B9: E01-D39F/V31A (designed binder)
chain: B1 chain with V49A, D57F
B10: E01-D39F/S35G (designed binder)
chain: B1 chain with S53G, D57F
B11: E01-D39F/A34S (designed binder)
chain: B1 chain with A52S, D57F

These binders were tested against D-VEGF, synthetic D-protein form of VEGF-A(8-109) (Homo sapiens (Human)) (UniProt P15692) (assay: SPR (ProteOn XPR36), D-VEGF immobilized).
D-VEGF, synthetic D-protein form of VEGF-A(8-109) (Homo sapiens (Human)), sequence (P15692 214-315 limits assumed, form in doubt): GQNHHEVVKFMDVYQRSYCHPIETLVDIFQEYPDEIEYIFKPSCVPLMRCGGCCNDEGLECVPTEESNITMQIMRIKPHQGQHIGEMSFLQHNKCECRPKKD

| Kd | koff | kon | Binder |
| --- | --- | --- | --- |
| 3.46 nM | 0.00117 s⁻¹ | 338000 M⁻¹ s⁻¹ | B1 |
| 2.29 nM | 0.00138 s⁻¹ | 602000 M⁻¹ s⁻¹ | B2 |
| 5.35 nM | 0.00183 s⁻¹ | 341000 M⁻¹ s⁻¹ | B3 |
| 4.52 nM | 0.00205 s⁻¹ | 454000 M⁻¹ s⁻¹ | B4 |
| 2.83 nM | 0.00131 s⁻¹ | 463000 M⁻¹ s⁻¹ | B5 |
| 3.48 nM | 0.00132 s⁻¹ | 380000 M⁻¹ s⁻¹ | B6 |
| 3.1 nM | 0.00158 s⁻¹ | 511000 M⁻¹ s⁻¹ | B7 |
| 1.14 nM | 0.00082 s⁻¹ | 719000 M⁻¹ s⁻¹ | B8 |
| 2.99 nM | 0.00167 s⁻¹ | 558000 M⁻¹ s⁻¹ | B9 |
| 5.4 nM | 0.00193 s⁻¹ | 358000 M⁻¹ s⁻¹ | B10 |
| 4.49 nM | 0.00174 s⁻¹ | 387000 M⁻¹ s⁻¹ | B11 |

Molecular target: D-VEGF, synthetic D-protein form of VEGF-A(8-109) (Homo sapiens (Human)) (UniProt P15692)
Test: SPR (ProteOn XPR36), D-VEGF immobilized
Remark: another data set of the same source

| Kd | koff | kon | Binder |
| --- | --- | --- | --- |
| 13.4 nM | 0.00347 s⁻¹ | 260000 M⁻¹ s⁻¹ | B1 |
